Measured values: patent US20220064257A1 (published 2022)
Values joined by “and” are separate entries in the source; they are usually repeats but may differ in a detail not shown here. Equal entries are not always repeated. Each block holds one binder with its values, some of them ahead of it.

Assays:
[1] = molecular target: T1, MYD88 L265P peptide on HLA-B*07:02 (human); assay: printed as KD (TCR affinity/avidity): non-linear curve analysis of the IFNγ ELISA response; TCR-transduced CD8+ T cells from healthy donors with K562 cells transduced with HLA*B07:02 and loaded with titrated peptide; full-length, on cells
T1 peptide: RPIPIKYKAM

[2] = molecular target: T2, human self peptide predicted by Expitope for TCR2304 (source protein not named) peptide on HLA-B*07:02 (human); assay: cytokine release
T2 peptide: RPVPISYHQL

[3] = molecular target: T3, human self peptide predicted by Expitope for TCR2304 (source protein not named) peptide on HLA-B*07:02 (human); assay: cytokine release
T3 peptide: LPIHITYAAM

[4] = molecular target: T4, human self peptide predicted by Expitope for TCR2304 (source protein not named) peptide on HLA-B*07:02 (human); assay: cytokine release
T4 peptide: KPIRIGYKIW

[5] = molecular target: T5, human self peptide predicted by Expitope for TCR2304 (source protein not named) peptide on HLA-B*07:02 (human); assay: cytokine release
T5 peptide: RPQPIYYGFS

[6] = molecular target: T6, human self peptide predicted by Expitope for TCR2304 (source protein not named) peptide on HLA-B*07:02 (human); assay: cytokine release
T6 peptide: VPIIIKYLMF

[7] = molecular target: T7, human self peptide predicted by Expitope for TCR2304 (source protein not named) peptide on HLA-B*07:02 (human); assay: cytokine release
T7 peptide: TPPKIPYKAI

[8] = molecular target: T8, human self peptide predicted by Expitope for TCR2304 (source protein not named) peptide on HLA-B*07:02 (human); assay: cytokine release
T8 peptide: LPQSIVYKYM

[9] = molecular target: T9, human self peptide predicted by Expitope for TCR2304 (source protein not named) peptide on HLA-B*07:02 (human); assay: cytokine release
T9 peptide: RPAMIPYWAL

[10] = molecular target: T10, MYD88 L265P epitope of SEQ ID NO: 2 with alanine at position 2 (alanine scan); residues derived from the … (human); assay: cytokine release
T10 peptide: RAIPIKYKAM

[11] = molecular target: T11, human self peptide predicted by Expitope for TCR2304 (source protein not named) peptide on HLA-B*07:02 (human); assay: cytokine release
T11 peptide: RPRMIGYGAI

[12] = molecular target: T12, human self peptide predicted by Expitope for TCR2304 (source protein not named) peptide on HLA-B*07:02 (human); assay: cytokine release
T12 peptide: LPLYISYVAM

[13] = molecular target: T13, human self peptide predicted by Expitope for TCR2304 (source protein not named) peptide on HLA-B*07:02 (human); assay: cytokine release
T13 peptide: RPDLIDYKSL

[14] = molecular target: T14, human self peptide predicted by Expitope for TCR2304 (source protein not named) peptide on HLA-B*07:02 (human); assay: cytokine release
T14 peptide: LPTRIAYYAM

EC50 of peptide [1]: 0.024 µg/ml and 19 nM
B3: TCR2719 (TCR, V domains shown)
Valpha: LAKTTQPISMDSYEGQEVNITCSHNNIATNDYITWYQQFPSQGPRFIIQGYKTKVTNEVASLFIPADRKSSTLSLPRVSLSDTAVYYCLVGADSNYQLIWGAGTKLIIKP
Vbeta: DSGVTQTPKHLITATGQRVTLRCSPRSGDLSVYWYQQSLDQGLQFLIQYYNGEERAKGNILERFSAQQFPDLHSELNLSSLELGDSALYFCASSPGGGAYEQYFGPGTRLTVT

EC50 of peptide [1]: 0.123 µg/ml and 100 nM
B4: TCR2219 (TCR, V domains shown)
Valpha: QQPVQSPQAVILREGEDAVINCSSSKALYSVHWYRQKHGEAPVFLMILLKGGEQMRHEKIFASFNEKKQQSSLYLTASQLSYSGTYFCGTAHLRAGSYQLTFGKGTKLSVIP
Vbeta: EAQVTQNPRYLITVTGKKLTVTCSQNMNHEYMSWYRQDPGLGLRQIYYSMNVEVTDKGDVPEGYKVSRKEKRNFPLILESPSPNQTSLYFCASSSSSGGAFNEQFFGPGTRLTVL

EC50 of peptide [1]: 0.102 µg/ml and 83 nM
B5: TCR2709 (TCR, V domains shown)
Valpha: DAKTTQPNSMESNEEEPVHLPCNHSTISGTDYIHWYRQLPSQGPEYVIHGLTSNVNNRMASLAIAEDRKSSTLILHRATLRDAAVYYCILRDRYGGSQGNLIFGKGTKLSVKP
Vbeta: NAGVTQTPKFRVLKTGQSMTLLCAQDMNHEYMYWYRQDPGMGLRLIHYSVGEGTTAKGEVPDGYNVSRLKKQNFLLGLESAAPSQTSVYFCASSYWPTTGESTDTQYFGPGTRLTVL

EC50 of peptide [1]: 0.003 µg/ml and 2.4 nM
B9: TCR2207 (TCR, V domains shown)
Valpha: GQNIDQPTEMTATEGAIVQINCTYQTSGFNGLFWYQQHAGEAPTFLSYNVLDGLEEKGRFSSFLSRSKGYSYLLLKELQMKDSASYLCAVDVGYSTLTFGKGTMLLVSP
Vbeta: GAVVSQHPSWVICKSGTSVKIECRSLDFQATTMFWYRQFPKQSLMLMATSNEGSKATYEQGVEKDKFLINHASLTLSTLTVTSAHPEDSSFYICSARDRSGTLGGELFFGEGSRLTVL

EC50 of peptide [1]: 0.003 µg/ml and 2.4 nM | binding result [2]: no recognition | binding result [3]: no recognition | binding result [4]: no recognition | binding result [5]: no recognition | binding result [6]: no recognition | binding result [7]: no recognition | binding result [8]: no recognition | binding result [9]: no recognition | binding result [10]: no recognition | binding result [11]: no recognition | binding result [12]: no recognition | binding result [13]: no recognition | binding result [14]: no recognition
B10: TCR2304 (TCR, V domains shown)
Valpha: GQNIDQPTEMTATEGAIVQINCTYQTSGFNGLFWYQQHAGEAPTFLSYNVLDGLEEKGRFSSFLSRSKGYSYLLLKELQMKDSASYLCAVRASGTYKYIFGTGTRLKVLA
Vbeta: DAGVIQSPRHEVTEMGQEVTLRCKPISGHNSLFWYRQTMMRGLELLIYFNNNVPIDDSGMPEDRFSAKMPNASFSTLKIQPSEPRDSAVYFCASQDSYEQYFGPGTRLTVT

EC50 of peptide [1]: 0.099 µg/ml and 81 nM
B11: TCR2716 (TCR, V domains shown)
Valpha: AQTVTQSQPEMSVQEAETVTLSCTYDTSENNYYLFWYKQPPSRQMILVIRQEAYKQQNATENRFSVNFQKAAKSFSLKISDSQLGDTAMYFCAFMKPYSGGGADGLTFGKGTHLIIQP
Vbeta: AAGVIQSPRHLIKEKRETATLKCYPIPRHDTVYWYQQGPGQDPQFLISFYEKMQSDKGSIPDRFSAQQFSDYHSELNMSSLELGDSALYFCASSLAGTTVYNEQFFGPGTRLTVL

EC50 of peptide [1]: 0.02 µg/ml and 16 nM
B12: TCR2705 (TCR, V domains shown)
Valpha: QKEVEQDPGPLSVPEGAIVSLNCTYSNSAFQYFMWYRQYSRKGPELLMYTYSSGNKEDGRFTAQVDKSSKYISLFIRDSQPSDSATYLCAMSGTGGFKTIFGAGTRLFVKA
Vbeta: ETGVTQTPRHLVMGMTNKKSLKCEQHLGHNAMYWYKQSAKKPLELMFVYSLEERVENNSVPSRFSPECPNSSHLFLHLHTLQPEDSALYLCASSQDRPNYYGYTFGSGTRLTVV

The remaining lines, values behind:

B1: TCR2202 (TCR, V domains shown)
Valpha: LAKTTQPISMDSYEGQEVNITCSHNNIATNDYITWYQQFPSQGPRFIIQGYKTKVTNEVASLFIPADRKSSTLSLPRVSLSDTAVYYCLSLSDSNYQLIWGAGTKLIIKP
Vbeta: DSGVTQTPKHLITATGQRVTLRCSPRSGDLSVYWYQQSLDQGLQFLIQYYNGEERAKGNILERFSAQQFPDLHSELNLSSLELGDSALYFCASSVGQGSYEQYFGPGTRLTVT
EC50 of peptide [1]: 0.033 µg/ml and 27 nM

B2: TCR2205 (TCR, V domains shown)
Valpha: LAKTTQPISMDSYEGQEVNITCSHNNIATNDYITWYQQFPSQGPRFIIQGYKTKVTNEVASLFIPADRKSSTLSLPRVSLSDTAVYYCLVGRDGGSYIPTFGRGTSLIVHP
Vbeta: DSGVTQTPKHLITATGQRVTLRCSPRSGDLSVYWYQQSLDQGLQFLIHYYNGEERAKGNILERFSAQQFPDLHSELNLSSLELGDSALYFCASSAGQGAYEQYFGPGTRLTVT
EC50 of peptide [1]: 0.004 µg/ml and 3.2 nM

B6: TCR1336 (TCR, V domains shown)
Valpha: GENVEQHPSTLSVQEGDSAVIKCTYSDSASNYFPWYKQELGKRPQLIIDIRSNVGEKKDQRIAVTLNKTAKHFSLHITETQPEDSAVYFCAASGRYDYKLSFGAGTTVTVRA
Vbeta: DAMVIQNPRYQVTQFGKPVTLSCSQTLNHNVMYWYQQKSSQAPKLLFHYYDKDFNNEADTPDNFQSRRPNTSFCFLDIRSPGLGDAAMYLCATASDLQGDRSTEAFFGQGTRLTVV
EC50 of peptide [1]: 0.387 µg/ml and 310 nM

B7: TCR1605 (TCR, V domains shown)
Valpha: GESVGLHLPTLSVQEGDNSIINCAYSNSASDYFIWYKQESGKGPQFIIDIRSNMDKRQGQRVTVLLNKTVKHLSLQIAATQPGDSAVYFCAEGTGSARQLTFGSGTQLTVLP
Vbeta: DVKVTQSSRYLVKRTGEKVFLECVQDMDHENMFWYRQDPGLGLRLIYFSYDVKMKEKGDIPEGYSVSREKKERFSLILESASTNQTSMYLCASGPFRDSVLTLVANVLTFGAGSRLTVL
EC50 of peptide [1]: 0.009 µg/ml and 7.4 nM

B8: TCR1610 (TCR, V domains shown)
Valpha: KQEVTQIPAALSVPEGENLVLNCSFTDSAIYNLQWFRQDPGKGLTSLLLIQSSQREQTSGRLNASLDKSSGRSTLYIAASQPGDSATYLCAPLGGGYNKLIFGAGTRLAVHP
Vbeta: NAGVTQTPKFRILKIGQSMTLQCAQDMNHNYMYWYRQDPGMGLKLIYYSVGAGITDKGEVPNGYNVSRSTTEDFPLRLELAAPSQTSVYFCASRLPTTDEKLFFGSGTQLSVL
EC50 of peptide [1]: 0.009 µg/ml and 7.4 nM
